Experiment: CD spectra analysis of ß-sheet conformation
Format: physicochemical
Settings: 62.5 µM in sodium carbonate (0.05 mM)/ SDS (37.5 mM) buffer, 20°C, instantly after resuspending in buffer
Method: To compare the ß-sheets formed by the wild type and the mutated trimer, respectively, CD spectra analysis was performed. Both peptides were measured at a concentration of 62.5 µM in sodium carbonate (0.05 mM)/ SDS (37.5 mM) buffer with a JASCO J-810 spectroplarimeter (JASCO, Easton, MD, USA). Far-UV CD spectra (190-260 nm) were recorded at 20°C using a quartz cuvette with an optical path length of 1 mm. The scanning speed was set at 20 nm/min with a response time 4 second and bandwidth 2 nm.

wild type Aβ: wild type Aβ peptide compared with mutated Aβ (1-40; G29Ile,G33Ile) in CD spectra; length not stated
ß-sheet: 1%
